Substitutions are numbered along the chain they refer to. Names and notes keep the numbering of the source.
B1: GST-EB1_(185-255) (domain or fragment, human, UniProt Q15691 185-255, looked up)
chain: GVGNGDDEAAELMQQVNVLKLTVEDLEKERDFYFGKLRNIELICQENEGENDPVLQRIVDILYATDEGFVI
B2: full-length EB1 F216A (natural protein, human, UniProt Q15691 1-268, looked up)
chain: MAVNVYSTSVTSDNLSRHDMLAWINESLQLNLTKIEQLCSGAAYCQFMDMLFPGSIALKKVKFQAKLEHEYIQNFKILQAGFKRMGVDKIIPVDKLVKGKFQDNFEFVQWFKKFFDANYDGKDYDPVAARQGQETAVAPSLVAPALNKPKKPLTSSSAAPQRPISTQRTAAAPKAGPGVVRKNPGVGNGDDEAAELMQQVNVLKLTVEDLEKERDAYFGKLRNIELICQENEGENDPVLQRIVDILYATDEGFVIPDEGGPQEEQEEY
B3: full-length EB1 Y217A (natural protein, human, UniProt Q15691 1-268, looked up)
chain: B2 chain with A216F, Y217A
B4: full-length EB1 F218A (natural protein, human, UniProt Q15691 1-268, looked up)
chain: B2 chain with A216F, F218A
B5: full-length EB1 K220A (natural protein, human, UniProt Q15691 1-268, looked up)
chain: B2 chain with A216F, K220A
B6: full-length EB1 E225A (natural protein, human, UniProt Q15691 1-268, looked up)
chain: B2 chain with A216F, E225A

Tests used:
GFP-APC_(2744-2843) = GFP-APC_(2744-2843) (human, UniProt P25054 2744-2843); test: pull-down
Chain of GFP-APC_(2744-2843) (P25054 2744-2843): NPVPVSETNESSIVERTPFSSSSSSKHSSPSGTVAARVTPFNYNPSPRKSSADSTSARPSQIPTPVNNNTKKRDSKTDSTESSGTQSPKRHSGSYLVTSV

[1] = biological target: APC-GFP fusion construct, APC residues 2739–2831 (human, UniProt P25054 2739-2831); test: pull-down
[2] = biological target: APC-GFP fusion construct, APC residues 2760–2831 (human, UniProt P25054 2760-2831); test: pull-down
SEC = biological target: the molecule itself; test: SEC
GST-EB1_(185-255) = biological target: B1; test: pull-down

| Binder | stoichiometry N (SEC) | other results |
| --- | --- | --- |
| B1 |  | binding result (GFP-APC_(2744-2843)): binds; binding result [1]: binds; binding result [2]: binds |
| B2 | 2 |  |
| B3 | 2 |  |
| B4 | 2 |  |
| B5 | 2 |  |
| B6 | 2 |  |
| TPFNYNPSPRKSSADSTSARPSQIPTPVNNNTKKRDSKTDSTESSGTQSP (domain or fragment, human, UniProt P25054 2782-2831, looked up) [APC-GFP fusion construct, APC residues 2782–2831] |  | binding result (GST-EB1_(185-255)): binds |
